Target: the molecule itself
Assay: crystal structure

B1: β-ketoacyl thiolase B of Ralstonia eutropha (enzyme, UniProt Q0KBP1 1-394, looked up)
chain: MTREVVVVSGVRTAIGTFGGSLKDVAPAELGALVVREALARAQVSGDDVGHVVFGNVIQTEPRDMYLGRVAAVNGGVTINAPALTVNRLCGSGLQAIVSAAQTILLGDTDVAIGGGAESMSRAPYLAPAARWGARMGDAGLVDMMLGALHDPFHRIHMGVTAENVAKEYDISRAQQDEAALESHRRASAAIKAGYFKDQIVPVVSKGRKGDVTFDTDEHVRHDATIDDMTKLRPVFVKENGTVTAGNASGLNDAAAAVVMMERAEAERRGLKPLARLVSYGHAGVDPKAMGIGPVPATKIALERAGLQVSDLDVIEANEAFAAQACAVTKALGLDPAKVNPNGSGISLGHPIGATGALITVKALHELNRVQGRYALVTMCIGGGQGIAAIFERI
stoichiometry N: 4

— article PMC4610036 (Journal of molecular catalysis. B, Enzymatic, 2015)
